Assay results as given in patent US20120271039, “METHOD FOR PURIFYING ACTIVE GLA-DOMAIN COAGULATION PROTEINS” (LFB BIOTECHNOLOGIES, published 2012).

Key:
[1] = molecular target: T1, Coagulation Factor IX (recombinant) (Homo sapiens, UniProt P00740 P00740:47-461); test: SPR; highest affinity of the 30 core aptamers; FIX immobilized; 50 mM Tris, 10 mM CaCl2, 4 mM MgCl2, pH 7.5; settings: tags: BeneFIX (nonacog alfa, Wyeth); correctly gamma-carboxylated
Experimental: (§1) Each sample was injected sequentially onto the same chip (solid support) containing the immobilized human recombinant FIX. Controls are obtained by injecting blanks containing only run buffer. All the injections were carried out with a flow rate of 30 μl/min for 60 sec; after the injection, run buffer was injected onto the chip at an identical flow rate for 120 sec.
(§2) Elution buffer (10 mM EDTA) was then injected for 60 sec with a flow rate of 30 μl/min to uncouple the aptamer from the immobilized human FIX.
(§3) The chip makes it possible to observe in real time the formation and the disruption of interactions between the immobilized human recombinant FIX and each of the aptamers, having the sequences SEQ ID Nos. 3 and 6 to 35, tested, through surface plasmon resonance (SPR). Binding to the immobilized recombinant human FIX generates an increase in signal expressed in resonance units (RU) recorded by the apparatus (FIG. 6). These analyses are carried out with the Biacore T100 SPR apparatus (GE). The modeling of the recorded interactions is carried out by means of the Biaevaluation software (GE).

[2] = molecular target: T1, Coagulation Factor IX (recombinant); test: SPR; FIX immobilized; 50 mM Tris, 10 mM CaCl2, 4 mM MgCl2, pH 7.5; settings: tags: BeneFIX (nonacog alfa, Wyeth); correctly gamma-carboxylated
Experimental: as §1, §2, §3

[3] = molecular target: Coagulation Factor VII (plasma) (Homo sapiens, UniProt P08709 P08709:61-466); test: affinity chromatography; Ca/Mg buffer, EDTA elution; settings: tags: plasma FVII (98-99% pure; ACSET, LFB, in column tests); label: biotin
Sequence of Coagulation Factor VII (plasma) (P08709 61-466, one chain of several): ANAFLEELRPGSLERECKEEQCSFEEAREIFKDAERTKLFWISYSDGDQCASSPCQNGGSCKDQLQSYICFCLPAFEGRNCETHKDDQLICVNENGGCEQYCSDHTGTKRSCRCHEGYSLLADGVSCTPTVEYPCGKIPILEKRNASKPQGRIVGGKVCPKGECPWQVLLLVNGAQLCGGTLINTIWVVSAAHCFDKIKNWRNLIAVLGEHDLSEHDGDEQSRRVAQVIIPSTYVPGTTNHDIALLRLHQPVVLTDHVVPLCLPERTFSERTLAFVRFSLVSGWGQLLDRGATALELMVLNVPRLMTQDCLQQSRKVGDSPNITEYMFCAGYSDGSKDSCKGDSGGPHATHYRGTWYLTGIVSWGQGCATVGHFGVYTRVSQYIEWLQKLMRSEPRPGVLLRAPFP
Experimental: The FVII is eluted with a 20 mM Tris-HCl+10 mM EDTA buffer at pH 7.5. The elution peak is collected according to the OD profile.
In FIG. 15, the injection (1) of human plasma […] concentrate is followed rapidly by the elimination peak (2) of the fraction not retained on the affinity support. The affinity support continues to saturate with the coagulation protein of interest: complexes between (i) the anti-GLA nucleic aptamers of the affinity support and (ii) the human plasma FVII molecules initially contained in the composition to be purified were formed. After running the composition to be purified, a step of washing the column with the previously specified washing buffer is carried out. Then, the elution step is carried out by injecting the elution buffer solution comprising a final concentration of 10 mM of EDTA.

T1 sequence (P00740 47-461, one chain of several): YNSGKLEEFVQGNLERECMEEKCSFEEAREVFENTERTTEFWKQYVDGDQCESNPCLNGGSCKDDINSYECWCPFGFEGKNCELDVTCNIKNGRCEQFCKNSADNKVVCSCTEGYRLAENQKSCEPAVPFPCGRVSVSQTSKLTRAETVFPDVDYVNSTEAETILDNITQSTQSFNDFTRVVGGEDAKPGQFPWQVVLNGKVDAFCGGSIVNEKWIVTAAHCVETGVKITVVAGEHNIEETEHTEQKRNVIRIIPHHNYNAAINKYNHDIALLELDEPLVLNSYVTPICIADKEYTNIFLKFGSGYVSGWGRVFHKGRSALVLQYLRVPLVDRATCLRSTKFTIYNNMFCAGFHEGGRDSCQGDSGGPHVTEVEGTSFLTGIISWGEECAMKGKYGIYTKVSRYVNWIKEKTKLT

## CGCACATGACTTGAAGTAAAACGCGAATTACAGACCAAACCCG (ssDNA) [Mapt-1.2-CS]
[1]
  binding result: binds

## CGCACATGACTTGAAGTTAAACGCGAATTACAAACCCAGCCCCC (ssDNA) [Mapt-1 core sequence (Mapt-1-CS)]
[2]
  binding result: binds

## CCGCACACCACGCGCATGACCCCGCGCACACGACTTGAAGTAGC (ssDNA) [Mapt-2-CS]
[3]
  binding result: binds
